Values joined by “and” are separate entries in the source; they are usually repeats but may differ in a detail not shown here. Identical values can stand only once. Like-named read-outs stand apart in the source and are kept apart here. Bounds are passed on as bounds.

Assay in all cases: SPR
For experiment [1], the target named is catalytic domain of human AURKA (amino acids 122-430) (human).
Experiment [2] has the same target. The source holds these as a separate data set.
Experiment [3] has the same target. This is another data set of the same source.

Turning to “AURKA interacting region (AIR) of N-Myc (N-Myc residues 61-89) (from UniProt P04198 61-89) (peptide)”, the Kd in experiment [1] was > 15000 nM. In experiment [2], the Kd turned out to be 990 nM, the koff amounted to 0.0659 s⁻¹ and the kon was found to be 63000 M⁻¹ s⁻¹. In experiment [3], the Kd was 690 nM and 4000 nM.

The values above are taken from publication doi:10.1101/2021.03.10.433854.
